Assay results as given in publication PMC12431857, “A multichaperone condensate enhances protein folding in the endoplasmic reticulum” (Nature Cell Biology, 2025).
Changes are numbered by the printed parent chain. Names may count otherwise.

B1: Human PDIA6 lacking its ER signal sequence (residues 19-440) (natural protein, UniProt Q15084-1 19-440, looked up)
chain: GLYSSSDDVIELTPSNFNREVIQSDSLWLVEFYAPWCGHCQRLTPEWKKAATALKDVVKVGAVDADKHHSLGGQYGVQGFPTIKIFGSNKNRPEDYQGGRTGEAIVDAALSALRQLVKDRLGGRSGGYSSGKQGRSDSSSKKDVIELTDDSFDKNVLDSEDVWMVEFYAPWCGHCKNLEPEWAAAASEVKEQTKGKVKLAAVDATVNQVLASRYGIRGFPTIKIFQKGESPVDYDGGRTRSDIVSRALDLFSDNAPPPELLEIINEDIAKRTCEEHQLCVVAVLPHILDTGAAGRNSYLEVLLKLADKYKKKMWGWLWTEAGAQSELETALGIGGFGYPAMAAINARKMKFALLKGSFSEQGINEFLRELSFGRGSTAPVGGGAFPTIVEREPWDGRDGELPVEDDIDLSDVELDDLGKDEL
notes: Homodimer by SEC-MALS; Isotope-labelled (methyl labelling) for NMR; also called PDIA6 WT; PDIA6 full-length; not shown: His6, N-terminal, cleaved
B2: PDIA6 his-domain ab (residues 161-440) (domain or fragment, human, UniProt Q15084 161-440, looked up)
chain: DVIELTDDSFDKNVLDSEDVWMVEFYAPWCGHCKNLEPEWAAAASEVKEQTKGKVKLAAVDATVNQVLASRYGIRGFPTIKIFQKGESPVDYDGGRTRSDIVSRALDLFSDNAPPPELLEIINEDIAKRTCEEHQLCVVAVLPHILDTGAAGRNSYLEVLLKLADKYKKKMWGWLWTEAGAQSELETALGIGGFGYPAMAAINARKMKFALLKGSFSEQGINEFLRELSFGRGSTAPVGGGAFPTIVEREPWDGRDGELPVEDDIDLSDVELDDLGKDEL
notes: PDIA6, human, domains a and b with the C-terminal tail, residues 161-440; also called PDIA6 domain ab; his-TEV-domain ab; source: E. coli BL21-(DE3)-Lemo, purified (Ni-NTA, SEC); not shown: His6, N-terminal, kept
B3: DyLight 488-PDIA6 (N-terminally tagged, residues 19-440) (natural protein, human, UniProt Q15084 19-440, looked up)
chain: B1 chain
modifications: DyLight 488 amine-reactive dye on the N-terminus
notes: Same construct as m1, fluorescently labelled for MST (0.75-1.5 moles dye per mole protein); not shown: His6, N-terminal, cleaved
B4: PDIA6 (R142Q, K150N, R153Q) linker mutant (natural protein, human, UniProt Q15084 19-440, looked up)
chain: B1 chain with R124Q, K132N, R135Q
notes: PDIA6, human, residues 19-440; source: E. coli BL21-(DE3)-Lemo, purified as the WT protein; not shown: His6, N-terminal, cleaved
B5: PDIA6 (K150N, R153Q, K159N) linker mutant (natural protein, human, UniProt Q15084 19-440, looked up)
chain: B1 chain with K132N, R135Q, K141N
notes: as for B4
B6: PDIA6 5x linker mutant (R142Q, K150N, R153Q, K159N and K160N) (natural protein, human, UniProt Q15084 19-440, looked up)
chain: B1 chain with R124Q, K132N, R135Q, K141N, K142N
notes: as for B4
B7: 21-residue peptide corresponding to the a0-a linker of PDIA6 (peptide)
peptide: GGRSGGYSSGKQGRSDSSSKK
notes: linker between domains a0 and a of human PDIA6; Limits worked out from the printed positions R142, K150, R153, K159, K160 of the linker mutants; also called linker peptide

What was measured:
[1] = biological target: the molecule itself; assay: SEC-MALS; S200 10/300 GL column, 25 °C, SEC buffer (25 mM HEPES pH 7.5, 150 mM KCl, 10 mM MgCl2); proteins eluted at 20 μM
[2] = biological target: T1, Human BiP lacking its ER signal sequence (residues 19-654) (human, UniProt P11021 19-654); assay: NMR titration; 2D [13C,1H]-HMQC or [15N,1H]-HSQC of 100 μM labelled protein without and with 2 eq. of the unlabelled partner; chemical shift perturbation mapping; 37 °C; details: both partners purified
T1 construct: Isotope-labelled (Ile, Met, Val methyl groups) where it was the observed protein in NMR; also called Hsp70 BiP; GRP78; not shown: His6, N-terminal, cleaved
T1 sequence (P11021 19-654): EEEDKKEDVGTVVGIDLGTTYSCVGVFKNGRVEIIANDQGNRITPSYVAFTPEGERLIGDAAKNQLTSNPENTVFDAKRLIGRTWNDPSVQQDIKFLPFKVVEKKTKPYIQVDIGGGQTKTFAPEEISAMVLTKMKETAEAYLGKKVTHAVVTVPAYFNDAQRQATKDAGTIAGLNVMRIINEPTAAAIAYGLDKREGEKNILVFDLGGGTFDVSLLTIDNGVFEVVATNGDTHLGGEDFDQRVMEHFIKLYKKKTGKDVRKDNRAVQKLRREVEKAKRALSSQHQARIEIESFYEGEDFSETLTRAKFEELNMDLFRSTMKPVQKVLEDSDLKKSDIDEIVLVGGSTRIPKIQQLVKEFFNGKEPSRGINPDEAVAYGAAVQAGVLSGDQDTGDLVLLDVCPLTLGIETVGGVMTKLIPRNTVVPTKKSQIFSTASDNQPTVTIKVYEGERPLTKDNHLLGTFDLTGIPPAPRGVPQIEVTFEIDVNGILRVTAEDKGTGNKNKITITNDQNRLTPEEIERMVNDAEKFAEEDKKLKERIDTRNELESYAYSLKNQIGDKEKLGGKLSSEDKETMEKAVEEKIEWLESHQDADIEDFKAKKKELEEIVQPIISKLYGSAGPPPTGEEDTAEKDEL

[3] = biological target: T1, Human BiP lacking its ER signal …; assay: MST; 20 nM N-terminally tagged DyLight 488-PDIA6 with increasing BiP; SEC buffer with 5 mM ADP, 1 mM KH2PO4/K2HPO4, 0.05% Tween, 1 mM CaCl2; 30 min at 25 °C; Monolith NT.115; triplicates; details: both partners purified
[4] = biological target: B1; assay: NMR titration; 2D [13C,1H]-HMQC of methyl-labelled full-length PDIA6 with 10 mM Ca2+, 10 eq. linker peptide added, no crowding agent, 37 °C; read-out: populations of conformations P and O of domain b; also after addition of 1 M KCl; details: both partners purified

Binder	stoichiometry N [1]	further results
B1	2	binding result [2]: binds
B2	–	binding result [2]: binds
B3	–	Kd [3]: ~50 µM
B4	2	–
B5	2	–
B6	2	–
B7	–	binding result [4]: binds
